Test results: article PMC12814185, “Receptor-Mediated Shuttling of a D‑Amino Acid Peptide Achieves High Nanomolar Cytosolic Concentrations” (Journal of the American Chemical Society, 2025)

Target: recombinant human GST-MDM2 (human) (UniProt Q00987)
Test: fluorescence polarisation

Chain of recombinant human GST-MDM2 (human) (Q00987 whole entry): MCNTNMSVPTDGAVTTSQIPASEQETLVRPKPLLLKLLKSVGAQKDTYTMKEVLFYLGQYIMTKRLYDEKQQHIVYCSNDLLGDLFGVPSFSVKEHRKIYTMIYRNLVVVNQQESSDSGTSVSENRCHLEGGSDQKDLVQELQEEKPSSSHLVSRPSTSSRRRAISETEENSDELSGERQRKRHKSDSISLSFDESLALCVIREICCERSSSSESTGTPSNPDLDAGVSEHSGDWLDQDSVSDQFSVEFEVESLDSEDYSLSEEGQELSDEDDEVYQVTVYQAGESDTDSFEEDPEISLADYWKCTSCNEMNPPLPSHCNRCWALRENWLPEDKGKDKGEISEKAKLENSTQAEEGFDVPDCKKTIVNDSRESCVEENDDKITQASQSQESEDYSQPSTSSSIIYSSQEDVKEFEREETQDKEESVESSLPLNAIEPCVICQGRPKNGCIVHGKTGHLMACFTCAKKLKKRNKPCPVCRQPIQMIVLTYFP

In the case of Cy5-r9-PMIγ (peptide), the Kd is reported as 57 nM.
